Results: patent US20160136299A1 (Sanofi, published 2016)

Biological target: T1, Recombinant human FcγRI (human, UniProt P12314 16-292, limits assumed)
T1 construct: not shown: His tag (captured on anti-tetra-His antibody)
Assay: Biacore SPR; FcγRI captured on anti-tetra-His, antibody 100 nM

T1 sequence (P12314 16-292 limits assumed): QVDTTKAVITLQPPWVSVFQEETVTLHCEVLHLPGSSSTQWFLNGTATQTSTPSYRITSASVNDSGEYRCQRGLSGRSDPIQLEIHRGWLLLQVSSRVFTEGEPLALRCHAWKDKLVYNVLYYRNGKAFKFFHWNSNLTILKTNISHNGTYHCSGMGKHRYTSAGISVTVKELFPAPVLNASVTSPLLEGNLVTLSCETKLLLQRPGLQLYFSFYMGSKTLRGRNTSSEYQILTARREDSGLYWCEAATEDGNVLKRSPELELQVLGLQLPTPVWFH

Row | Binder | binding result
1 | Anti-αβTCR clone H66 S298N/Y300S antibody (antibody, human IgG1, kappa, Full-length human IgG1; also called SY; S298N/Y300S H66) heavy: not shown light: EIVLTQSPATLSLSPGERATLSCSATSSVSYMHWYQQKPGQAPRRLIYDTSKLASGVPARFSGSGSGTSYTLTISSLEPEDFAVYYCQQWSSNPLTFGGGTKVEIKRTVAAPSVFIFPPSDEQLKSGTASVVCLLNNFYPREAKVQWKVDNALQSGNSQESVTEQDSKDSTYSLSSTLTLSKADYEKHKVYACEVTHQGLSSPVTKSFNRGEC | binds
2 | Anti-αβTCR clone H66 N297Q/S298N/Y300S antibody (antibody, human IgG1, kappa, Full-length human IgG1; also called NSY) heavy: EVQLLQSGGGLVQPGGSLRLSCAASGYKFTSYVMHWVRQAPGKGLEWVGYINPYNDVTKYNEKFKGRFTLSRDNSKNTLYLQMNSLRAEDTAVYYCARGSYYDYDGFVYWGQGTLVTVSSASTKGPSVFPLAPSSKSTSGGTAALGCLVKDYFPEPVTVSWNSGALTSGVHTFPAVLQSSGLYSLSSVVTVPSSSLGTQTYICNVNHKPSNTKVDKKVEPKSCDKTHTCPPCPAPELLGGPSVFLFPPKPKDTLMISRTPEVTCVVVDVSHEDPEVKFNWYVDGVEVHNAKTKPREEQYQNTSRVVSVLTVLHQDWLNGKEYKCKVSNKALPAPIEKTISKAKGQPREPQVYTLPPSRDELTKNQVSLTCLVKGFYPSDIAVEWESNGQPENNYKTTPPVLDSDGSFFLYSKLTVDKSRWQQGNVFSCSVMHEALHNHYTQKSLSLSPGK light: EIVLTQSPATLSLSPGERATLSCSATSSVSYMHWYQQKPGQAPRRLIYDTSKLASGVPARFSGSGSGTSYTLTISSLEPEDFAVYYCQQWSSNPLTFGGGTKVEIKRTVAAPSVFIFPPSDEQLKSGTASVVCLLNNFYPREAKVQWKVDNALQSGNSQESVTEQDSKDSTYSLSSTLTLSKADYEKHKVYACEVTHQGLSSPVTKSFNRGEC | binds
